Reference: paper doi:10.1101/127514

Assays:
[1] = target: Alexa Fluor 647 maleimide-labeled LukS-K281C-Y113H (Staphylococcus aureus); test: single-molecule step-wise photobleaching
[2] = target: human C5a receptor with C-terminal mGFP, on HEK cells (human) (UniProt P21730); test: single-molecule step-wise photobleaching
Sequence of UniProt P21730 (P21730 whole entry): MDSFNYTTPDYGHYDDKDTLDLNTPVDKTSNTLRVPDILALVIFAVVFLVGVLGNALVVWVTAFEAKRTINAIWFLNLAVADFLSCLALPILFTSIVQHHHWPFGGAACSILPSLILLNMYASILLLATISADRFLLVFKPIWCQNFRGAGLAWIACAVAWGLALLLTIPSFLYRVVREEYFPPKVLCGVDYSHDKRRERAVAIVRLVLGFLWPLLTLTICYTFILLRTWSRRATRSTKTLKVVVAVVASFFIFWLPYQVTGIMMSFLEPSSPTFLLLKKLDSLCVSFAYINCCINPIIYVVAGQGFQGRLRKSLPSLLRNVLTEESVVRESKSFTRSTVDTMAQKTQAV

Alexa Fluor 647 maleimide-labeled LukS-K281C-Y113H (natural protein)
stoichiometry N [1]: 3.9 molecules | stoichiometry N (hC5aR molecules per LukS molecule) [2]: 4 to 5
